From paper PMC5499804

T1: DDX21 m4 (Homo sapiens, UniProt Q9NR30 1-783, P754Y;R755E;Q757I;R758Q)
T1 sequence: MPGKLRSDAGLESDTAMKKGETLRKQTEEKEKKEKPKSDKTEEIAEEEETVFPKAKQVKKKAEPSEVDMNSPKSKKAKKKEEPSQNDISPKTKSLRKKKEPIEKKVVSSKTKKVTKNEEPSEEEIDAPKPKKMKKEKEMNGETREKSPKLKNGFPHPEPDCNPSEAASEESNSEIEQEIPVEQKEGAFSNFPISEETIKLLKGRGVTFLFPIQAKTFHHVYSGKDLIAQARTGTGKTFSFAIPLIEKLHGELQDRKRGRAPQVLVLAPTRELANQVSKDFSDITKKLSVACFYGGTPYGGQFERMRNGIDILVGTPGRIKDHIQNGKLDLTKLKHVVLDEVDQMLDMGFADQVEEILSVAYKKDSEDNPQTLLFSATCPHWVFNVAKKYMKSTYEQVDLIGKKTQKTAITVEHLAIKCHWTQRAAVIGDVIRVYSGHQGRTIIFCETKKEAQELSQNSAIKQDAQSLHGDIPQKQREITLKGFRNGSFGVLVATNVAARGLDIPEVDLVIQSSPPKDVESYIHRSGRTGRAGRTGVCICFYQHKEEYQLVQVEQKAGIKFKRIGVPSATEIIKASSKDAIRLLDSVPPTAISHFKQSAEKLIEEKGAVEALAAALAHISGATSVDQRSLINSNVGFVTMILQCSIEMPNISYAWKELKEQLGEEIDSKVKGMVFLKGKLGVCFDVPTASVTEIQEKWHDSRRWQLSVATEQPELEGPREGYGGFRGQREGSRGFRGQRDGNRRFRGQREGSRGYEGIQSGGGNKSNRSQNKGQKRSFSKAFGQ

T2: DDX21 full length (1-783) (Homo sapiens, UniProt Q9NR30 1-783)
T2 sequence: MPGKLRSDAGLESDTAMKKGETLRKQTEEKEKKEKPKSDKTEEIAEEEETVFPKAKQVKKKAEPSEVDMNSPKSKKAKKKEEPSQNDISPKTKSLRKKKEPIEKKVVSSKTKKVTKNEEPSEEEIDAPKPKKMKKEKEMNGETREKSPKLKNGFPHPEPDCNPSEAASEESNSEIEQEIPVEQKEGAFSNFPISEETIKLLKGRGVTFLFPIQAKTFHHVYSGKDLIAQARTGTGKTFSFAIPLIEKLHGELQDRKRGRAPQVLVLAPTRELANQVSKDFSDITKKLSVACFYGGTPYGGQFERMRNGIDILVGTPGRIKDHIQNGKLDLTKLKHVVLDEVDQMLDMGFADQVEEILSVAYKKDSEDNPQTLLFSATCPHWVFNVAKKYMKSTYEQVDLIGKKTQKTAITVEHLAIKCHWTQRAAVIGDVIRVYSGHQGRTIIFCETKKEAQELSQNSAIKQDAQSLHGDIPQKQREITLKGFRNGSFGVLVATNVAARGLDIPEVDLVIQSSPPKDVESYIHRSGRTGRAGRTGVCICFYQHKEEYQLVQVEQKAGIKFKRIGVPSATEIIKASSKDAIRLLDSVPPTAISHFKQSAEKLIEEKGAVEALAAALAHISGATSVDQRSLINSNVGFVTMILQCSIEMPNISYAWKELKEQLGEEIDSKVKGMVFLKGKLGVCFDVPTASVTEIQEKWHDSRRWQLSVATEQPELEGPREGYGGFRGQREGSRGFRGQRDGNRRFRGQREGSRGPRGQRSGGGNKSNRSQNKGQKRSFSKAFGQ

T3: DDX21(574-783) (Homo sapiens, UniProt Q9NR30 574-783)
T3 sequence: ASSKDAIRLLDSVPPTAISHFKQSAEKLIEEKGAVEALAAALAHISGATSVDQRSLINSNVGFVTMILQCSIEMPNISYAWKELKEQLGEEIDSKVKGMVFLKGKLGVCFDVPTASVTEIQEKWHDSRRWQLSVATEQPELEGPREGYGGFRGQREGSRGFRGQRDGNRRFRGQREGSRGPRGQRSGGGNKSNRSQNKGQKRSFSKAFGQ


How the values were obtained:
Assay in all cases: MST
DDX21 m4 = target: T1, DDX21 m4
[1] = target: T2, DDX21 full length (1-783)
DDX21(574-783) [2] = target: T3, DDX21(574-783)
DDX21(574-783) [3] = target: T3, DDX21(574-783); remark: listed apart in the source

Binder	binding result (DDX21 m4)	binding result [1]	binding signal (DDX21(574-783) [2])	Kd [1]	Kd (DDX21(574-783) [3])
GUUGCGCCGCGCGUUGCGUUUGCGCGCACG (ssRNA) [Q2-mutant]	no binding	no binding	~1000 fold less affinity than Q2 wild type	–	–
GUUGGGGCGGGCGUUGGGUUUGGGGGGACG (structured_RNA) [Q2]	–	–	–	10 ± 0.7 nM	–
AGGGUGGGCCUGGGAGGGGUGGUGGCCAU (structured_RNA) [hTR(10-43)]	no binding	–	–	324 ± 7 nM	149 ± 10 nM
